Measured values from the supplement of paper PMC9170038.

System: MS2 coat protein
Assay: apparent KD of MS2 coat protein; designed switch direction (-1 OFF switch, 1 ON switch): 1; higher = weaker reporter binding
Method in brief: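 The reported apparent KD is a per-design median over clusters, from curve fits of normalised cluster fluorescence. Protein titrations used SNAP-549-labelled MS2 coat protein, doubled from 0.7 or 1.5 nM to 3 µM, in Tris-HCl pH 7.5 buffer with KCl, MgCl2, BSA, DTT, tRNA and Tween-20, with no input, 200 uM small-molecule ligand, or an oligonucleotide input. The RNA switches were transcribed on Illumina chips by stalled E. coli RNA polymerase.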

[1] = input ligand: microRNA oligo, concentration not stated
[2] = Eterna round: R95, input ligand: FMN 200 uM
[3] = Eterna round: R95, input ligand: microRNA oligo, concentration not stated
[4] = Eterna round: R95, input ligand: none

Row | Sequence | apparent KD of MS2 coat protein (input ligand: FMN 200 uM) [nM] | apparent KD of MS2 coat protein [1] [nM] | apparent KD of MS2 coat protein (input ligand: none) [nM] | apparent KD of MS2 coat protein [2] [nM] | apparent KD of MS2 coat protein [3] [nM] | apparent KD of MS2 coat protein [4] [nM]
1 | GUACAGAUCAGAGGAUAUCACGUCGUUUAGACGUGAGAAGGCUGAUCACACAUGAAUAUUAGUACAUGAGGAUCACCCAUGUAC [SSNG1/15-A3] (Eterna round: R96, puzzle: Same State NG 1) | 13.7 | 13.4 | 17.5 |  |  | 
2 | UUACUCAUGUAAGGAUAUGCAGCCGUUUCGGCUGCAGAAGGUACUAUAAUACAUGAGGAUCACCCAUGUCUUUUUAAUUUUGAC [JL SSNG1 1.27] (Eterna round: R96, puzzle: Same State NG 1) | 79.3 | 34.5 | 39.2 |  |  | 
3 | AGUGCAGCCUGAGCUGCACAAAAGCAUGUACAUGAGGAUCACCCAUGUCAUGUACAAGCUUUUUGCUCGUCUUAAAA [Mat - hsa-mir-208a - Mod of JL - D20] (puzzle: Sensor for hsa-mir-208a) |  |  |  | 529 | 15.4 | 688
4 | UGGUACAUGGGAGGAUAUGGAGUGAUGACAUGAGGAUCACCCAUGUUAUUUAUGCCGAGAGGCAACUAGAAGGCCCAUGUACCU [JL SSNG1 3.96] (Eterna round: R96, puzzle: Same State NG 2) | 16.7 | 40.8 | 52 |  |  | 
5 | GUUACAUGAGGAUCACCCAUGUAUGUGUGGGAGUAAGUGUCUUAGGAUAUCUAUGAUUGAAUUUAAGAGAAGGAAGAUUGUUGU [JMF's solution 77] (Eterna round: R96, puzzle: Same State NG 3) | 103 | 83.8 | 90.6 |  |  | 
6 | UUGUUUCGUCAUUAACAUGAGGAUCACCCAUGUAUUGACCCAAAGGAUAUAUAUGUUUGUUUGUAAUAGAAGGUUGAUUGUUGU [JR_SSNG3_Sub091] (Eterna round: R96, puzzle: Same State NG 3) | 19.9 | 16.8 | 20.6 |  |  | 
7 | AGGGUACAUGAGGAUCACCCAUGUGGGUCGGUCGCAGGAUAUGCCCGUGGGCGCUGGCGGGCAGAAGGGUGCCGAA [Same State1-IX] (Eterna round: R96, puzzle: Same State 1) | 81.4 | 187 | 341 |  |  | 
8 | GUGGAGGGUUGAGGAUAUUGAAUACAUAUGUUUAACAUGAGGAUCACCCAUGUGGGUUGCGGUUUCGAGAAGGUAGGUUGCUGG [salish99_SSNG2_r04_040] (Eterna round: R96, puzzle: Same State NG 2) | 103 | 72 | 111 |  |  | 
9 | CUGCUCGUGUGAGGAUAUGCCGCCGUUUCGGCUGCAGAAGGUGCUACGUUACAUGAGGAUCACCCAUGUCUCUGUUGUUUCGUC [salish99_SSNG1_r04_946] (Eterna round: R96, puzzle: Same State NG 1) | 25.6 | 18.7 | 31.3 |  |  | 
10 | UGUUGUAUUACAGGAUAUCUAUUGUUUUUAAUUAGAGAAGGGUAUUCACAUGAGGAUCACCCAUGUAUAUACGAGGAAGUUGUG [JMF's solution 81] (Eterna round: R96, puzzle: Same State NG 1) |  | 37.6 |  |  |  | 
11 | UGUUAACAUGAGGAUCACCCAUGUCAAAAGAAUCGAGGAUAUGGUAAGUAAUAAGAGAAUCUAGAAGGCGAAGUUG [Altered State 1-24 - Jieux - Same State 1] (puzzle: Same State 1) |  |  |  | 42.7 | 55.9 | 60.9
12 | UGUUGUAUUACAGGAUAUCUAGUAAUUUUAUUUAGAGAAGGGUAUUCACAUGAGGAUCACCCAUGUAUAUACGAGGAAGUUGUG [JMF's solution 35] (Eterna round: R96, puzzle: Same State NG 1) |  | 27.8 |  |  |  | 
13 | CUGCUCGGGUGAGGAUAUGCCGCCGUUUCGGCUGCAGAAGGUGCUACGUUACAUGAGGAUCACCCAUGUCUCUGUUGUUUCGUU [salish99_SSNG1_r04_965] (Eterna round: R96, puzzle: Same State NG 1) | 72.1 | 42.8 | 62.2 |  |  | 
14 | UUGGUACAUGAGGAUCACCCAUGUGGGUCGGUCGCAGGAUAUGCCCGUGGGCGCUUGCGGGCAGAAGGGUGCCGUA [Same State1-X] (Eterna round: R96, puzzle: Same State 1) | 173 | 386 | 1000 |  |  | 
15 | UAAACUUCUUUUAGUGUAAUGCAAGUGAAACAUGAGGAUCACCCAUGUAAAGGAUCGUGAUAUUUUGUUCGUCUUAA [JR_SHM208A_Sub076] (puzzle: Sensor for hsa-mir-208a) |  |  |  | 57.2 | 32.5 | 83
16 | GCUGCAAAGGCAGGAUAUGGGUCCAGAGCGCAAAUGCGCUCUGGUACAUGAGGAUCACCCAUGUCCCAGAAGGGCCCAAGCAGC [Inleedbi] (Eterna round: R96, puzzle: Same State NG 2) | 17 | 61.3 | 117 |  |  | 

Row | Sequence | apparent KD of MS2 coat protein (input ligand: FMN 200 uM) [nM] | apparent KD of MS2 coat protein [1] [nM] | apparent KD of MS2 coat protein (input ligand: none) [nM] | apparent KD of MS2 coat protein [2] [nM] | apparent KD of MS2 coat protein [3] [nM] | apparent KD of MS2 coat protein [4] [nM]
17 | AGUCCAGCCUGAGCUGGACAAAAGCAUGUACAUGAGGAUCACCCAUGUUCAUGUACAAGCUUUUUGCUCGUCUAAAA [Mat - hsa-mir-208a - Mod of JL - 50] (puzzle: Sensor for hsa-mir-208a) |  |  |  | 414 | 16.2 | 540
18 | UUUAGAUUCAGAGGAUAUUGAUGUUGUAUUUUACAAGAAGGCUGAUUGGUUUGAAAUGUUAUUAAACAUGAGGAUCACCCAUGU [JR_SSNG1_Sub012] (Eterna round: R96, puzzle: Same State NG 1) | 31.7 | 32.3 | 44.5 |  |  | 
19 | GCCAUCGUAUGAGGAUAUGGCACCGAAACGGUGCCAGAAGGCAUGUCAAUAGACAUGAGGAUCACCCAUGUAUUAUCGAUGGCA [Mat - Same State NG 1 - JL mod - D90] (Eterna round: R96, puzzle: Same State NG 1) |  | 278 |  |  |  | 
20 | AGGCUCAGAGCAGGAUAUACGUGGUCACAUGAGGAUCACCCAUGUCUCGAGCUUCGGCUCGAGGCGUAGAAGGGCUCUGAGCCA [SSNG2/6-B1] (Eterna round: R96, puzzle: Same State NG 2) | 140 | 204 | 330 |  |  | 
21 | CUGAGAUGUCAAGGAUAUGCUACCGUUUCGGUAGCAGAAGGUGAUCACAUGAGGAUCACCCAUGUAUGCAUGCGUGAGCGUGCU [JL SSNG1 3.59] (Eterna round: R96, puzzle: Same State NG 1) | 234 | 36.9 | 62 |  |  | 
22 | CAGCGCUGUCGAGAGGAUAUGUGGUGAUGGACAUGAGGAUCACCCAUGUUAGCGACAGCAUCACGGCAGAAGGCUCUACCGCUGC [Soteed Omei mod 30] (puzzle: Same State 2) |  |  |  | 31.2 | 40.6 | 23.1
23 | CGUUCUUACUCAGGACGGAGAGUAGAGGAACAUGAGGAUCACCCAUGUAUGAGCUUUUUGCUCGUGAUUAACAGUAG [JR_SHM208a_Sub013] (puzzle: Sensor for hsa-mir-208a) |  |  |  | 62.7 | 95.4 | 122
24 | AACAAUUUAUCUGAGGAUAUCAUGAAAUAAACAUGAGGAUCACCCAUGUGCAGGAAAACUGCAUAUGAGAAGGCAGAUAGAUUGA [salish99_ss2_r3_023] (puzzle: Same State 2) |  |  |  | 53.5 | 821 | 1890
25 | UGUUAACAUGAGGAUCACCCAUGUCAAAUGAAUCGAGGAUAUGGGAAGUAAUAAGAUAAACUAGAAGGCGAAGUUG [Altered State 1-1 - Jieux - Same State 1] (puzzle: Same State 1) |  |  |  | 358 | 106 | 195
26 | GGUCCAGCCUGAGCUGGACUACAGCAUGUACAUGAGGAUCACCCAUGUCAUGUACAUGUUUUUUGUUUGUCUUAAAA [Sensorship 9 - Jieux - Sensor for hsa-mir-208a] (puzzle: Sensor for hsa-mir-208a) |  |  |  | 69 | 70.1 | 99.4
27 | CAGCGCUGUUGAGAGGAUAUGCGGUGAUGGACAUGAGGAUCACCCAUGUUAGCGACAGCAUUACGGCAGAAGGCUUCACAGCUGC [Soteed Omei mod 17] (puzzle: Same State 2) |  |  |  |  | 39.3 | 
28 | UCAAGCGUUUGGCUCGUCUUAUGUUUGGUACAUGAGGAUCACCCAUGUUAUGUACGAUCCAGUUAGAUGGUAUUUUG [JR_SHM208A_Sub037] (puzzle: Sensor for hsa-mir-208a) |  |  |  | 35.9 | 127 | 47.1
29 | AUAAACAGGCUAGGAUAUCCGGAAACUACAGGGCACAACCCUAUAGACAUGAGGAUCACCCAUGUGGAGAAGGAGCCACAUGAA [Ceesis] (Eterna round: R96, puzzle: Same State NG 2) | 40.6 | 156 | 195 |  |  | 
30 | CUGAGCGAUCAAGGAUAUCACGUCGAAUAGACGUGAGAAGGUGAUCAUAACAUGAGGAUCACCCAUGUAUUACAUGAAGCUCAG [SSNG1/2-A1] (Eterna round: R96, puzzle: Same State NG 1) | 231 | 536 | 2240 |  |  | 
31 | GGUCCAGCCUGAGCUGGACAAAAGCAUGUACAUGAGGAUCACCCAUGUUCAUGUACAAGCUUUUUGCUCGUCUUACA [salish99_208a_r3_084] (puzzle: Sensor for hsa-mir-208a) |  |  |  | 485 | 14.8 | 443
